Assay results from publication PMC4705658.

T1: Gbp2 RRM3 (Saccharomyces cerevisiae, UniProt P25555 330-427)
T1 sequence: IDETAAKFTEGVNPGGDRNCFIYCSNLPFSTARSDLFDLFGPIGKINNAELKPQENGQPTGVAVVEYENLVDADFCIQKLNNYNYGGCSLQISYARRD

T2: Hrb1 RRM2 (Saccharomyces cerevisiae, UniProt P38922 261-338)
T2 sequence: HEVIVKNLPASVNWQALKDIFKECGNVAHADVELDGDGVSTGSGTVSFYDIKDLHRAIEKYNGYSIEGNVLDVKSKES

T3: Gbp2 RRM123 (Saccharomyces cerevisiae, UniProt P25555 122-427)
T3 sequence: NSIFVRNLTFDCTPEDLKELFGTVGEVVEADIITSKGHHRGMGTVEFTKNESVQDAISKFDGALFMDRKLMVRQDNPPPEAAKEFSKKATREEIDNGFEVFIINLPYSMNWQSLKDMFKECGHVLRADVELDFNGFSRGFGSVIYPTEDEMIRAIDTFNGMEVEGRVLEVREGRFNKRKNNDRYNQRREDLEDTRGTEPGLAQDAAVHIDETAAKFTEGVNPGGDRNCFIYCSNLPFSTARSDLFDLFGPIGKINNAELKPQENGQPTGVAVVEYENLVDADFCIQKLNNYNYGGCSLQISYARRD

T4: Gbp2 RRM12 (Saccharomyces cerevisiae, UniProt P25555 122-316)
T4 sequence: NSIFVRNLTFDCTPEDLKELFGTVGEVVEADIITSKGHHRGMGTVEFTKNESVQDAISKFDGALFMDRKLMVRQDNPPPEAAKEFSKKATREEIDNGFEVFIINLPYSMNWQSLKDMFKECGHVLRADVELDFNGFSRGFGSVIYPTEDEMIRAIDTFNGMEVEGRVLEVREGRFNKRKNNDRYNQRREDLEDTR

T5: Gbp2 RRM2 (Saccharomyces cerevisiae, UniProt P25555 219-316)
T5 sequence: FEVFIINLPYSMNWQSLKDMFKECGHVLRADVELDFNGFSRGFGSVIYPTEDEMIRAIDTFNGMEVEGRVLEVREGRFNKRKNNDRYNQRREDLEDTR


What was measured:
Gbp2 RRM3 [1] = target: T1, Gbp2 RRM3; assay: NMR HSQC titration
Hrb1 RRM2 = target: T2, Hrb1 RRM2; assay: fluorescence EMSA
Gbp2 RRM123 = target: T3, Gbp2 RRM123; assay: fluorescence anisotropy
Gbp2 RRM12 = target: T4, Gbp2 RRM12; assay: fluorescence anisotropy
Gbp2 RRM2 = target: T5, Gbp2 RRM2; assay: fluorescence anisotropy
Gbp2 RRM3 [2] = target: T1, Gbp2 RRM3; assay: fluorescence anisotropy

Row | Binder | binding result (Gbp2 RRM3 [1]) | binding result (Hrb1 RRM2) | Kd (Gbp2 RRM123) [µM] | Kd (Gbp2 RRM12) [µM] | Kd (Gbp2 RRM2) [µM] | binding result (Gbp2 RRM3 [2])
1 | UUUUUUUUUUUU (ssRNA) [U12] | no binding |  |  |  |  | 
2 | AAAAAAAAAAAA (ssRNA) [A12] | no binding |  |  |  |  | 
3 | GTGGTGGGTGGGTGTGTGTGGGTGTGGTGGGTGTGTGGGTGTG (ssDNA) [TG-43] |  | no binding | ~0.059 |  |  | 
4 | UUGGUGUU (ssRNA) [Selex RNA UUGGUGUU] |  |  | 3.3 ± 0.8 | 5.5 ± 0.7 | 54 ± 4 | no binding
5 | TTGGTGTT (ssDNA) [d(TTGGTGTT)] |  |  | 17 ± 2 | 24 ± 2 | 310 ± 90 | no binding
